This note sets out measurements from patent US20250243271A1 (ALCEA THERAPEUTICS, published 2025).

This assay addresses T1, Recombinant human Notch4 (human, UniProt Q99466 24-1447, limits assumed).
T1 construct: also called Notch4 analyte; Notch4 (antigen)
T1 sequence: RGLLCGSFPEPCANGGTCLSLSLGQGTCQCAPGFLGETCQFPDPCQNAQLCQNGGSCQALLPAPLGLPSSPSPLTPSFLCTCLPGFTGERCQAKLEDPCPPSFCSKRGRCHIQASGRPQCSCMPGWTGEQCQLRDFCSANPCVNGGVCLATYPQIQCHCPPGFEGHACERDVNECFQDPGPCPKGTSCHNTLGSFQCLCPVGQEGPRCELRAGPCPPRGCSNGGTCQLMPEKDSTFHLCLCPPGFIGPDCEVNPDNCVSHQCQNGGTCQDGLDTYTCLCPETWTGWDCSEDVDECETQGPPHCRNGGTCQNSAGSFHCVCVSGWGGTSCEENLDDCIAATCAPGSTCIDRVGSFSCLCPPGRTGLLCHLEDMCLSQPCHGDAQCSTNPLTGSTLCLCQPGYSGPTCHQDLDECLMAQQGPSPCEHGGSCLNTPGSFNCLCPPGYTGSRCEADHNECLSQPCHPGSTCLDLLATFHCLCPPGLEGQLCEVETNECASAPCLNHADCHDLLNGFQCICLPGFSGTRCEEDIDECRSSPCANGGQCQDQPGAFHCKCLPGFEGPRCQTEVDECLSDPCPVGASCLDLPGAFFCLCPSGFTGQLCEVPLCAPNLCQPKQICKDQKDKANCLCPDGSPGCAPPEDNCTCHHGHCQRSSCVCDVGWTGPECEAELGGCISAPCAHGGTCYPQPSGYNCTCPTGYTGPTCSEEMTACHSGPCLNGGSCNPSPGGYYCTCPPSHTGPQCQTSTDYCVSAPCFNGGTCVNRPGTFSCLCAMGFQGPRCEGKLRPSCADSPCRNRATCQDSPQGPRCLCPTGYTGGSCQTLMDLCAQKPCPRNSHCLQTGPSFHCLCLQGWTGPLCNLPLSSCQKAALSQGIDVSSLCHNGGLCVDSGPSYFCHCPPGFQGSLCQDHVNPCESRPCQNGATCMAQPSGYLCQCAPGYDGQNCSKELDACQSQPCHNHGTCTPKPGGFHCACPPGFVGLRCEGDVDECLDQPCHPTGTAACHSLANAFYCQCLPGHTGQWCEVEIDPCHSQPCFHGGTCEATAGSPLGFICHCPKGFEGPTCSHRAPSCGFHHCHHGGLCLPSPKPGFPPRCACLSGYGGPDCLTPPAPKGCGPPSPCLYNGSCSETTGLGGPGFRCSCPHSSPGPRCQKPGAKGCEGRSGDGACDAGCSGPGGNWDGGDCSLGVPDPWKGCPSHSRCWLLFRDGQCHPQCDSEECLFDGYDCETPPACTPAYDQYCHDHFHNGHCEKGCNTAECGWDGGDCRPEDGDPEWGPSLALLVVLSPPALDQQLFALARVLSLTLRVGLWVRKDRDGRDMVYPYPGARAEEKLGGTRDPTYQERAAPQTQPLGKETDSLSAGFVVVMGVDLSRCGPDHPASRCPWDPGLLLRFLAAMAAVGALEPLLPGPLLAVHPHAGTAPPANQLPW
The assay can be described thus: SPR, antibody captured by anti-human IgG Fc on HC30M chip, Notch4 as analyte. How it is done:
Binding kinetics measurements. Following expression and purification, clones were characterized using surface plasmon resonance (SPR) to determine binding kinetics and epitope binding activity. HC30M chips (polycarboxylate hydrogel surfaces having medium charge density and 30 nm coating thickness) were coated with anti-human Fc antibodies (unlabeled goat anti-human IgG Fc from Southern Biotech) to capture the candidate antibodies. Candidate antibodies were diluted to 10 μg/mL in HEPES-buffered saline Tris-EDTA (HBSTE)) and exposed to the surfaces for 15 minutes. After stabilizing baseline using HBSTE, Notch4 analytes were injected sequentially from a lowest concentration of 0.41 nM to a highest concentration of 300 nM. (Notch4 was diluted in HBSTE+0.5 mg/mL bovine serum albumin (BSA) to obtain a series of 3-fold dilutions.) To assess specificity, experiments were also run using Notch2 as an analyte in a single injection at 100 nM in HBSTE+0.5 mg/mL.

B1: iggrefmat 3-4 (antibody, V domains shown)
VH: EVQLVQSGAEVKKPGASVKVSCKASGYTFSDHYISWVRQAPGQGLEWMGWMNPTSGHTNYAQKLQGRGTMTTDPSTSTAYMELRSLRSDDTAVYYCARVSGRWLPAVDGHYYYYYGMDVWGQGTTVTVSS
VL: ESALTQPASVSGSPGQSITISCTGTGSNIGAGYGVSWYQQHPGKAPKLMIYANINRPPGVSNRFSGSKSGNTASLTISGLQAEDEADYYCSSYTSSSWMFGGGTKLTVL
notes: Tested as an antibody captured by anti-human IgG Fc; also called D11-Lib4-Pl1
The term Kd denotes the constant that tells how readily two partners part at equilibrium. Turning to B1, the Kd is 2.6 nM.

B2: iggrefmat 3-11 (antibody, V domains shown)
VH: EVQLVQSGAEVKKPGASVKVSCKASGYTFATYPISWVRQAPGQGLEWMGGMNPTTGDTIYAQKLQGRGTMTTDPSTSTAYMELRSLRSDDTAVYYCARGDRAWFDPWGQGTLVTVSS
VL: B1 VL
notes: Tested as an antibody captured by anti-human IgG Fc; also called H03-Lib6-Pl2
As to B2, the Kd stood at 0.92 nM.

B3: B07-Lib3-Pl1 (antibody, V domains shown)
VH: EVQLVESGGGLVQPGGSLRLSCAASGFTLDNYVMSWVRQAPGKGLELVASISGSSADTYYPDSVKGRFTISRDNAKNSLYLQMNSLRAEDTAVYYCAKGIAAGYGMDVWGQGTTVTVSS
VL: DIVMTQSPLSLPVTPGEPASISCRSSQSLLHSSGYTYLHWYLQKPGQSPQLLIYATSYRAPGVPDRFSGSGSGTDFTLKISRVEAEDVGVYYCMQATHPYTFGGGTKVEIK
notes: Tested as an antibody captured by anti-human IgG Fc
B3: the dissociation constant Kd turned out to be 5 nM.

B4: iggrefmat 6-28 (antibody, V domains shown)
VH: EVQLVESGGGLVQPGRSLRLSCAASGFSFSDYHMHWVRQAPGKGLEWVGAISGSAYTTDYADSVEGRFTISRDNAKNSLYLQMNSLRAEDTAVYYCARDDYNKDGFDPWGQGTLVTVSS
VL: DIQMTQSPSSLSASVGDRVTITCRASQSIYSYLAWYQQKPGKAPKLLIYDASRLQSGVPSRFSGSGSGTDFTLTISSLQPEDVATYYCQQGYRSPITFGGGTKVEIK
notes: Tested as an antibody captured by anti-human IgG Fc; also called E03-Lib8H1N4
For the molecule B4, the dissociation constant (Kd) turned out to be 3.4 nM.

B5: iggrefmat 1-34 (antibody, V domains shown)
VH: QVQLVQSGAEVKKPGASVKVSCKVSGYTLTKSSIHWVRQAPGKGLEWMGGINPSAGTRIYAQKFQGRVTMTEDTSTDTAYMELSSLKSEDTAVYYCVRGSNPNVWGKGTTVTVSS
VL: DIQMTQSPSSVSASVGDRVTITCRASQTIGNYLAWYQQKPGKAPKLLIYKASTLASGVPSRFSGSGSGTDFTLTISSLQPEDFANYYCQQYNFYPRTFGGGTKVEIK
notes: as for B3
Regarding B5, the Kd was found to be 1.5 nM.

B6: iggrefmat 2-16 (antibody, V domains shown)
VH: QVQLVESGGGLVQPGGSLRLSCAASGLTFSGSAMSWVRQAPGKGLELVASITGSGTRTYYPDSVKGRFTISRDNAKNSLYLQMNSLRAEDTAVYYCARGLHAFDIWGQGTMVTVSS
VL: DIVMTQSPLSLPVTPGEPASISCRSSQSLLSSYGYHNLHWYLQKPGQSPQLLIYMGYNRASGVPDRFSGSGSGTDFTLKISRVEAEDVGVYYCMQGMHLPITFGGGTKVEIK
notes: Tested as an antibody captured by anti-human IgG Fc; also called C07-Lib3-Pl1
With B6, the Kd stood at 1.5 nM.

B7: iggrefmat 1-29 (antibody, V domains shown)
VH: QVQLVQSGAEVKKPGASVKVSCKVSRGTFSTYAIHWVRQAPGKGLEWMGGINAATGYTIYAQKFQGRVTMTEDTSTDTAYMELSSLKSEDTAVYYCVRSVGSIEYWGQGTLVTVSS
VL: DIQMTQSPSSVSASVGDRVTITCRASQGISNHLAWYQQKPGKAPKLLIYGASSRQSGVPSRFSGSGSGTDFTLTISSLQPEDFANYYCLHDRYPYTFGGGTKVEIK
notes: Tested as an antibody captured by anti-human IgG Fc; also called C01-Lib1-Pl1
Regarding B7, the Kd was 6.1 nM.

B8: iggrefmat 2-12 (antibody, V domains shown)
VH: EVQLVESGGGLVQPGGSLRLSCAASGFSFGTYSMSWVRQAPGKGLELVASIDTAGTPYYPDSVKGRFTISRDNAKNSLYLQMNSLRAEDTAVYYCARSYSGYDPYDAFDIWGQGTMVTVSS
VL: DIVMTQSPLSLPVTPGEPASISCRSSRSLVHGSGDNYLHWYLQKPGQSPQLLIYDASNRFSGVPDRFSGSGSGTDFTLKISRVEAEDVGVYYCAQTLQIPLTFGGGTKVEIK
notes: Tested as an antibody captured by anti-human IgG Fc; also called E08-Lib3-Pl1
B8: the dissociation constant (Kd) is 5.6 nM.

B9: G05-Lib3-Pl1 (antibody, V domains shown)
VH: EVQLVESGGGLVQPGGSLRLSCAASGFTFSDYSMSWVRQAPGKGLELVASISESGHDTYYPDSVKGRFTISRDNAKNSLYLQMNSLRAEDTAVYYCARGIAVAGTRAFDIWGQGTMVTVSS
VL: DIVMTQSPLSLPVTPGEPASISCRSSQSLLYSTGYNYLHWYLQKPGQSPQLLIYMGSYRASGVPDRFSGSGSGTDFTLKISRVEAEDVGVYYCMQALPTPPITFGGGTKVEIK
notes: as for B3
B9: the dissociation constant Kd stood at 0.89 nM.

B10: C08-Lib3-Pl1 (antibody, V domains shown)
VH: EVQLVESGGGLVQPGGSLRLSCAASGLPFSSYGMSWVRQAPGKGLELVASIGTSGTRTYYPDSVKGRFTISRDNAKNSLYLQMNSLRAEDTAVYYCARLGEGSGWSYFDYWGQGTLVTVSS
VL: DIVMTQSPLSLPVTPGEPASISCRSSQSLLHSTGYNYLHWYLQKPGQSPQLLIYSGSYRASGVPDRFSGSGSGTDFTLKISRVEAEDVGVYYCQQGYSTPHTFGGGTKVEIK
notes: as for B3
As to B10, the equilibrium dissociation constant (Kd) was 0.41 nM.

B11: iggrefmat 1-12 (antibody, V domains shown)
VH: QVQLVQSGAEVKKPGASVKVSCKVSGYPFSNYAIHWVRQAPGKGLEWMGGISPYTGKTIYAQKFQGRVTMTEDTSTDTAYMELSSLKSEDTAVYYCAFSRYYYDSSGYHGDAFDIWGQGTMVTVSS
VL: DIQMTQSPSSVSASVGDRVTITCRASQGISNHLAWYQQKPGKAPKLLIYDASNRATGVPSRFSGSGSGTDFTLTISSLQPEDFANYYCQQSFTIPSFGGGTKVEIK
notes: Tested as an antibody captured by anti-human IgG Fc; also called C02-Lib1_Pl1
In the case of B11, the Kd came out at 1.5 nM.

B12: iggrefmat 6-16 (antibody, V domains shown)
VH: EVQLVESGGGLVQPGRSLRLSCAASEFSFSRFDMHWVRQAPGKGLEWVSAISSSGSYKDYADSVEGRFTISRDNAKNSLYLQMNSLRAEDTAVYYCAREAYGDYGKPFDYWGQGTLVTVSS
VL: DIQMTQSPSSLSASVGDRVTITCRASQSISRNLAWYQQKPGKAPKLLIYAGSTLQRGVPSRFSGSGSGTDFTLTISSLQPEDVATYYCLQANMYPLTFGGGTKV
notes: as for B3
Turning to B12, the dissociation constant Kd was 0.38 nM.

B13: iggrefmat 3-13 (antibody, V domains shown)
VH: EVQLVQSGAEVKKPGASVKVSCKASGFPFSTSAISWVRQAPGQGLEWMGWMDPATGQTNYAQKLQGRGTMTTDPSTSTAYMELRSLRSDDTAVYYCARALRYCSGGRCQGFHGMDVWGQGTTVTVSS
VL: ESALTQPASVSGSPGQSITISCTGTNIAAKSVSWYQQHPGKAPKLMIYANINRPPGVSNRFSGSKSGNTASLTISGLQAEDEADYYCSSYTSSSWMFGGGTKLTVL
notes: Tested as an antibody captured by anti-human IgG Fc; also called C11-Lib4-Pl1
For the molecule B13, the dissociation constant Kd is 2.5 nM.

B14: C03-Lib1-Pl1 (antibody, V domains shown)
VH: QVQLVQSGAEVKKPGASVKVSCKVSGYTFTDLPIHWVRQAPGKGLEWMGGINPHSGDAIYAQKFQGRVTMTEDTSTDTAYMELSSLKSEDTAVYYCTTVIAVAGSNDSRPCGRSYLCVLDYWGQGTLVTVSS
VL: DIQMTQSPSSVSASVGDRVTITCNASQGIGHSLAWYQQKPGKAPKLLIYGATSRATGVPSRFSGSGSGTDFTLTISSLQPEDFANYYCLQDYIYPFTFGGGTKVEIK
notes: as for B3
On to B14, for which the dissociation constant (Kd) was found to be 5.3 nM.

B15: G04-Lib6-Pl2 (antibody, V domains shown)
VH: EVQLVQSGAEVKKPGASVKVSCKASGYSFTKSGIHWVRQAPGQGLEWMGWINPRTGNINYAQKLQGRGTMTTDPSTSTAYMELRSLRSDDTAVYYCARTHLGSSSSPPGYYYGMDVWGQGTTVTVSS
VL: ESALTQPASVSGSPGQSITISCTGTNIGAKAVSWYQQHPGKAPKLMIYAENKRPSGVSNRFSGSKSGNTASLTISGLQAEDEADYYCQAWDNRAILFGGGTKLTVL
notes: as for B3
For the molecule B15, the Kd was 1.6 nM.
